Patent US20250236682A1

What was measured:
[1] = target: human FcγIIA (R&D systems, 1330-CD) (human) (UniProt P12318); assay: BLI, His-FcγRIIA on HIS1K sensor
[2] = target: HER2 on human cancer cell lines (NCI-N87, BT474, SK-OV-3, SNU-1, SNU-5, SNU-601) (human) (UniProt P04626); assay: flow cytometry Fc load, BT474 cells
[3] = target: HER2 on human cancer cell lines (NCI-N87, BT474, SK-OV-3, SNU-1, SNU-5, SNU-601) (human) (UniProt P04626); assay: flow cytometry Fc load, SNU-1 cells
[4] = target: HER2 on human cancer cell lines (NCI-N87, BT474, SK-OV-3, SNU-1, SNU-5, SNU-601) (human) (UniProt P04626); assay: flow cytometry Fc load, SNU-5 cells
[5] = target: HER2 on human cancer cell lines (NCI-N87, BT474, SK-OV-3, SNU-1, SNU-5, SNU-601) (human) (UniProt P04626); assay: flow cytometry Fc load, NCI-N87 cells
[6] = target: HER2 on human cancer cell lines (NCI-N87, BT474, SK-OV-3, SNU-1, SNU-5, SNU-601) (human) (UniProt P04626); assay: flow cytometry Fc load, SK-OV-3 cells
[7] = target: human HER2 recombinant protein (R&D systems, 1129-ER) (human) (UniProt P04626); assay: BLI sequential binding on HER2-loaded sensor
[8] = target: human FcγRI (R&D systems, 1257-FC) (human) (UniProt P12314); assay: BLI, His-FcγRI on HIS1K sensor
Sequence of human FcγRI (R&D systems, 1257-FC) (human) (P12314 16-288 limits assumed): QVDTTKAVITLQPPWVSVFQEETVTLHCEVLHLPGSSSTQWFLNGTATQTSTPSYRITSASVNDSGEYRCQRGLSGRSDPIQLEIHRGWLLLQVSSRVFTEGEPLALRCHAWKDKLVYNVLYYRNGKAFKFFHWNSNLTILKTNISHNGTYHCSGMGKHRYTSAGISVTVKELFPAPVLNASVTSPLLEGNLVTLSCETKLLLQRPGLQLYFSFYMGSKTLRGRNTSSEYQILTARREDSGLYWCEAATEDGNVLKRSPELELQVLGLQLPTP

[9] = target: HER2 on human cancer cell lines (NCI-N87, BT474, SK-OV-3, SNU-1, SNU-5, SNU-601) (human) (UniProt P04626); assay: flow cytometry Fc load, SNU5 cells
[10] = target: HER2 on human cancer cell lines (NCI-N87, BT474, SK-OV-3, SNU-1, SNU-5, SNU-601) (human) (UniProt P04626); assay: flow cytometry Fc load, SNU601 cells
[11] = target: human HER2 on CT26-HER2 cell line (Clone #2-60) (human) (UniProt P04626); assay: flow cytometry Fc load, CT26-HER2 (#2-60) cells

Sequence of human FcγIIA (R&D systems, 1330-CD) (human) (P12318 36-218 H167R): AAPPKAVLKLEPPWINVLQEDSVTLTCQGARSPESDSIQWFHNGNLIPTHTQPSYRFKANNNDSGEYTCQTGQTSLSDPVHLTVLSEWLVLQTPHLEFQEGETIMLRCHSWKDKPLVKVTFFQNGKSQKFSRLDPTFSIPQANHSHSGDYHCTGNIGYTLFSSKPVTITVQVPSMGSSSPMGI

Substance	Kd [1]	GMFI [2]	GMFI [3]	GMFI [4]	GMFI [5]	GMFI [6]	binding signal (nm shift, value at 4140 s minus value at 1260 s) [7]	Kd [8]	GMFI [9]	GMFI [10]	GMFI [11]
pertuzumab (antibody)	359 nM										
trastuzumab + pertuzumab (combination)		38700	2690	1390	137000	6450	0.923 nm				
human IgG1 (Bio X cell, BE0297) (antibody)	310 nM							2.46 nM	101	173	150
